Where a chain is given by its changes, count along the chain named. Several values for one entry are separate records, joined by “and”; a condition that tells them apart may be missing. Identical values can stand only once.

These results are taken from patent US20220010008A1.

Assay [1] addresses recombinant human IL-5 protein (human) (UniProt P05113). Kind of assay: FACS, biotin-IL-5 bound to CHOK1 hIL-5Ra/CSF2RB cells with Ab 0.0021 nM.
Assay [2] has the same target. In words: FACS, biotin-IL-5 bound to CHOK1 hIL-5Ra/CSF2RB cells with Ab 0.0004 nM.
Assay [3] shares this target. In words: FACS, biotin-IL-5 bound to CHOK1 hIL-5Ra/CSF2RB cells with Ab 33.3333 nM.
The target is the same in assay [4]. In words: FACS, biotin-IL-5 bound to CHOK1 hIL-5Ra/CSF2RB cells with Ab 0.2667 nM.
For assay [5] the target is unchanged. In words: cell-based or functional assay.
For assay [6] the target is unchanged. Kind of assay: FACS, biotin-IL-5 bound to CHOK1 hIL-5Ra/CSF2RB cells with Ab 6.6667 nM.
For assay [7] the target is unchanged. Kind of assay: FACS, biotin-IL-5 bound to CHOK1 hIL-5Ra/CSF2RB cells with Ab 1.3333 nM.
For assay [8] the target is unchanged. In words: FACS, biotin-IL-5 bound to CHOK1 hIL-5Ra/CSF2RB cells with Ab 0.0533 nM.
The target is the same in assay [9]. In words: SPR, human IL-5 immobilized on chip, 1:1 fit.
Assay [10] has the same target. In words: FACS, biotin-IL-5 bound to CHOK1 hIL-5Ra/CSF2RB cells with Ab 0.0107 nM.
In assay [11] the target is recombinant human IL-5 protein with His tag (human) (UniProt P05113). Kind of assay: ELISA, biotin-human IL-5 on streptavidin; antibody 0.5333 nM.
For assay [12] the target is unchanged. Kind of assay: ELISA, biotin-human IL-5 on streptavidin; antibody 0.0213 nM.
The target is the same in assay [13]. In words: ELISA, biotin-human IL-5 on streptavidin; antibody 0.1067 nM.
For assay [14] the target is unchanged. Kind of assay: ELISA, biotin-human IL-5 on streptavidin; antibody 13.3333 nM.
Assay [15] has the same target. In words: ELISA, biotin-human IL-5 on streptavidin; antibody 2.6667 nM.
For assay [16] the target is unchanged. In words: ELISA, biotin-human IL-5 on streptavidin; antibody 0.0043 nM.
Assay [17] has the same target. In words: ELISA, biotin-human IL-5 on streptavidin; antibody 0.0002 nM.
The target is the same in assay [18]. Kind of assay: ELISA, biotin-human IL-5 on streptavidin; antibody 0.0009 nM.

B1: 151G3B11 (murine hybridoma lead antibody) (antibody, V domains shown)
VH: EVHLQQSGAELVKPGASVKLSCTASGFNIKDYYMHWVKQRTEQGLEWIGRIDPEDGETKYAPKFQGQATITADTSSNTANLQLSSLTSEDTAVYYCARYGNFPDYWGPGTTLTVSS
VL: QIVLTQSPALMSASPGEKVTMTCSASSSVSYMYWYQQKPRSSPKPWIYLTSKLASGVPARFSGSGSGTSYSLTISSMEAEDAATYYCQQWNSNPYTFGGGTKLEIK
With B1, the Fluorescence intensity in [1] worked out at 86. Further, the Fluorescence intensity in [2] turned out to be 93. Moreover, the Fluorescence intensity in [3] was found to be 30. Also, in [4], the Fluorescence intensity stood at 69. For the same molecule, in assay [5], the RLU, CTLL-2 cell proliferation stimulated by IL-5, Ab conc. 0.000170667 nM was 58000 RLU and 54700 RLU; the RLU, CTLL-2 cell proliferation stimulated by IL-5, Ab conc. 0.000853333 nM is 56500 RLU and 56300 RLU; the RLU, CTLL-2 cell proliferation stimulated by IL-5, Ab conc. 0.004266667 nM was 53600 RLU and 50900 RLU; the RLU, CTLL-2 cell proliferation stimulated by IL-5, Ab conc. 0.02133333 nM was 39300 RLU and 38800 RLU. Also, in [5], the RLU, CTLL-2 cell proliferation stimulated by IL-5, Ab conc. 0.1066667 nM is 14000 RLU and 12200 RLU; the RLU, CTLL-2 cell proliferation stimulated by IL-5, Ab conc. 0.5333334 nM was 12500 RLU and 11700 RLU; the RLU, CTLL-2 cell proliferation stimulated by IL-5, Ab conc. 2.666667 nM was 8720 RLU and 8840 RLU; the RLU, CTLL-2 cell proliferation stimulated by IL-5, Ab conc. 13.33333 nM is 7410 RLU and 6600 RLU. Moreover, in assay [5], the RLU, CTLL-2 cell proliferation stimulated by IL-5, Ab conc. 66.66666 nM is 6500 RLU and 5240 RLU; the RLU, CTLL-2 cell proliferation stimulated by IL-5, Ab conc. 3.41333E-05 nM was 60600 RLU and 48600 RLU; the RLU, TF-1 cell proliferation stimulated by IL-5, Ab conc. 0.00001 nM is 104000 RLU and 105000 RLU; the RLU, TF-1 cell proliferation stimulated by IL-5, Ab conc. 0.00003 nM was 95400 RLU and 98300 RLU. In assay [5], the RLU, TF-1 cell proliferation stimulated by IL-5, Ab conc. 0.00017 nM was 86500 RLU and 91300 RLU; the RLU, TF-1 cell proliferation stimulated by IL-5, Ab conc. 0.00085 nM was 72700 RLU and 70700 RLU; the RLU, TF-1 cell proliferation stimulated by IL-5, Ab conc. 0.00427 nM was 51100 RLU and 54700 RLU; the RLU, TF-1 cell proliferation stimulated by IL-5, Ab conc. 0.02133 nM was 49900 RLU and 47200 RLU. Also, in assay [5], the RLU, TF-1 cell proliferation stimulated by IL-5, Ab conc. 0.10667 nM worked out at 40400 RLU; the RLU, TF-1 cell proliferation stimulated by IL-5, Ab conc. 0.53333 nM was 35100 RLU and 37700 RLU; the RLU, TF-1 cell proliferation stimulated by IL-5, Ab conc. 2.66667 nM was 37900 RLU and 34300 RLU; the RLU, TF-1 cell proliferation stimulated by IL-5, Ab conc. 13.33333 nM was 35300 RLU and 36600 RLU. Also, the Fluorescence intensity in assay [6] came to 34. For the same molecule, the Fluorescence intensity in assay [7] is 46. In addition, the Fluorescence intensity in assay [8] is 84. Besides, in assay [9], the Kd was 0.0186 nM, the dissociation rate constant (koff) came to 9.04e-06 s⁻¹ and the kon is 486000 M⁻¹ s⁻¹. For the same molecule, the Fluorescence intensity in [10] was 87.

B2: 147D7H2 (murine hybridoma antibody) (antibody, V domains shown)
VH: EVQLQQSGAELVKPGASVKLSCTASGFNIKDYFIHWVKQRTEQGLEWIGRIDTEDGETKYAPKFQGKATITIDTSSNTAYLYFSSLTSEDTAMYYCARYGNYVAMDYWGQGTSVTVSS
VL: B1 VL with Y33F, R40S, M77V
For the molecule B2, the OD450 nm was 2.76 in assay [11]; 0.438 and 0.475 in [12]; 1.42 and 1.47 in assay [13]; 3.21 and 3.52 in assay [14]; 3.09 and 3.2 in assay [15]; 0.158 and 0.159 in [16]. For the same molecule, the OD450 nm is 0.073 and 0.074 in [17]; 0.088 and 0.09 in assay [18].

B3: 151G3B11 (murine hybridoma antibody) (antibody, V domains shown)
VH: B1 VH
VL: B1 VL
As for B3, the OD450 nm is 4.03 and 3.75 in [11]; 2.02 and 2.11 in assay [12]; 3.5 and 3.4 in [13]; 4.07 and 4.04 in assay [14]; 4.07 and 3.8 in assay [15]; 0.625 and 0.609 in assay [16]. Further, the OD450 nm in [17] was 0.103 and 0.094; in [18], 0.185 and 0.186.

B4: 154F10G8 (murine hybridoma antibody) (antibody, V domains shown)
VH: QVQLQQPGAELVKPGASVKLSCKASGYTFTSYWITWVKQRPGQGLEWIGDIYPGSGSTFYNEKFKSEATLTVDTSSSTAYMQLSSLTSEDSAVFYCSTETTLGYWGQGTTLTVSS
VL: DVLMTQTPLSLPVSLGDQASISCRSSQSIVHNNGNTYLEWYLQKPGQSPKLLIYKVSNRFSGVPDRFSGSGSGTDFTLKISRVEAEDLGVYYCFQGSHVPFTFGSGTKLEIK
For the molecule B4, the OD450 nm in assay [11] was 2.76 and 2.69; in assay [12] it was 0.595 and 0.64; in [13] it was 1.69 and 1.71; in assay [14], 3.3 and 3.49; in assay [15], 3.23 and 3.17; in [16], 0.205 and 0.193. Moreover, the OD450 nm in [17] was 0.079 and 0.07; in assay [18], 0.093 and 0.092.
